“Also recorded” adds a separate entry of the source.
Key:
[1] = Stability in complete cell culture media; format: in vitro ADME; conditions: up to 24 h
Experimental: FIG. 34A, HerDox stability in different storage conditions. HerDox was incubated at indicated times and temperatures was applied to a 10K mwco ultrafiltration membrane every other day, and retentate and filtrate A480 measured to determine relative Dox retention or release from complexes, respectively. […] FIG. 34B, Assessing stability in serum-containing media by ultrafiltration. HerDox immobilized on Ni-NTA beads (Qiagen Inc., Valencia. CA, USA) by incubation on ice for 2 h with agitation followed by free HerDox removal via bead pelleting/washing in HBS received 10% fetal bovine serum (FBS), to mimic cell culture conditions, and incubated at 37° C. with agitation for the indicated time-points. At each time-point, samples were pelleted and mean A480±SD (N=3) of supernatants (Released) and bead eluates (Retained) were measured. […] Relative Dox release or retention in serum is expressed as normalized to control (corresponding serum-lacking sample). […] Dox fluorescence (top panel) was visualized by UV excitation. […] Dox (1.6 nmoles) was added to serum coated wells and incubated for 30 min at 37° C. with agitation before supernatants were removed and the wells washed once with HBS before fluorescence spectra were measured for pre-incubation sample (Input), supernatant (Free) and wells (Serum-bound). Fluorescence spectra were obtained at Ex 485 nm/Em 520-750 nm with a 515 nm cutoff filter.

[2] = Stability in blood, ultrafiltration; format: in vitro ADME; conditions: 1 h at 37° C. in mouse blood
Text: FIG. 26A. Stability in blood. […] N=3. […] FIG. 26C. Assessing Dox retention in serum.

SKBR3 = test: HerDox cytotoxicity dose curves (metabolic assay, crystal violet); format: cell-based, human; conditions: SKBR3, high HER2; day 3; read-out: CD50 (the source's name)
Experimental: (§1) FIG. 21 depicts, in accordance with an embodiment herein, toxicity to cells displaying differential HER2. Cytotoxicities from a range of HerDox doses were assessed on each cell line by metabolic assay and confirmed by crystal violet stain. CD50 values (shown in log scale) were determined by non-linear regression analyses of HerDox dose curves using a scientific graphing program (GraphPad Prism) and confirmed with an on-line calculator (Chang bioscience). The relative HER2 level of each cell line is shown next to each CD50 value.
(§2) All treatments, N=3. FIG. 27A. Comparing cytotoxicity to HER2+ (MDAMB-435) and HER2− (MDA-MB-231) cells in separate cultures. Left, Relative survival (as % of untreated cells) on day 3 of treatment. Right, Micrograph of live cells after treatment. Control, mock (HBS) treatment. FIG. 27B, Receptor specificity of cytotoxicity. […] FIG. 27C, Toxicity to cells displaying differential HER2. Cytotoxicities from HerDox titrations were assessed on each cell line by metabolic assay and confirmed by crystal violet stain on day 3 of treatment. CD50 values (shown in log scale) were determined by non-linear regression analyses of HerDox killing curves using GraphPad Prism. The relative HER2 level of each cell line is shown next to each CD50 value. […] Survival was determined by calculating the relative doubling time (DT) of experimental (exp) cells normalized by mock-treated (con) cells based on crystal violet stains (total cells) and GFP fluorescence (MDAMB-231 cells), and applying DTMDA-MB-435=DTTotal-DTMDA-MB-231 as previously described. […] U251 cells were treated once with the indicated HerDox (and competitive inhibitor where indicated) or Dox doses and measured for cell survival at the indicated time points after treatment. * P<0.05 compared to Mock. […]
(§3) To assess the contribution of HER2 to therapeutic efficacy in vitro, we determined HerDox CD50 on selected human tumor lines displaying HER2 at relatively high (SKBR3), moderate (MDA-MB-435, MDAMB-453, HeLa), and low to undetectable (MDA-MB-231) levels, according to our receptor subunit profiling of a cell line panel.

[3] = test system: MDA-MB-435, MDAMB-453, HeLa; test: as above; format: cell-based, human; conditions: intermediate HER2 levels; day 3; read-out: CD50 (the source's name)
Experimental: as §1, §2, §3

MDA-MB-231 = test: as above; format: cell-based, human; conditions: MDA-MB-231, low HER2; day 3; read-out: CD50 (the source's name)
Experimental: as §1, §2, §3

[4] = Cardiac function (echocardiography) and myocardial histology of treated mice
Text: Histology of myocardia from treated mice. Micrographs show representative H&E stained specimens from treated mice.
Female immunodeficient (nu/nu) mice (6-8 weeks; Charles River Laboratories International, Wilmington, MA, USA) received subcutaneous bilateral flank injections of 1×10^7 indicated cells and monitored until tumors reached ˜200-300 mm3, at which point the following treatments were initiated. […] To assess therapeutic efficacy, a new group of tumor-bearing mice received daily i.v. (tail vein) injections of HerDox or Dox at indicated doses for 7 days followed by continued monitoring of tumor volumes (assessed by measuring tumor length and width using calipers, and applying LxW2), animal weights, and heart function. […] Cardiac function in anesthetized mice was evaluated by a Vevo 770 High-Frequency Ultrasound system (VisualSonics, Toronto, Canada). Heart rate and body temperature were monitored. Superficial hair was removed from the region of interest with a depilatory cream (Nair) before imaging. The 2-dimensional guided M-mode images of the left ventricle were obtained in the short-axis view at the papillary level with the mouse in the supine position. All primary measurements were traced manually and digitized by goal-directed software installed within the echocardiograph. Three beats were averaged for each measurement. All measurements were done from leading edge to leading edge according to the American Society of Echocardiography guidelines. At animal study completion, tissue harvested from euthanized mice were fixed in 4% paraformaldehyde/PBS at 4° C. for 24 h followed by transfer into 20% sucrose/PBS and storage at −80° C. before immunohistochemical processing. Specimens and hematoxylin/eosin staining were prepared by AML Laboratories, Inc., Baltimore, MD, USA.

B1: HerDox: self-assembled nanoparticle of oligonucleotide duplex, doxorubicin and HerPBK10 (conjugate)
chain: LPPRLKEMKSQESAAGSKLVLRCETSSEYSSLRFKWFKNGNELNRKNKPQNIKIQKKPGKSELRINKASLADSGEYMCKVISKLGNDSASANITIVESNEIITGMPASTEGAYVSSESPIRISVSTEGANTSSSTSTSTTGTSHLVKCAEKEKTFCVNGGECFMVKDLSNPSRYLCKCQPGFTGARCTENVPMKVQNQEKAEELYMRRAAMYEEGPPPSYESVVSAAPVAAALGSPFDAPLDPPFVPPRYLRPTGGRNSIRYSELAPLFDTTRVYLVDNKSTDVASLNYQNDHSNFLTTVIQNNDYSPGEASTQTINLDDRSHWGGDLKTILHTNMPNVNEFMFTNKFKARVMVSRLPTKDNQVELKYEWVEFTLPEGNYSETMTIDLMNNAIVEHYLKVGRQNGVLESDIGVKFDTRNFRLGFDPVTGLVMPGVYTNEAFHPDIILLPGCGVDFTHSRLSNLLGIRKRQPFQEGFRITYDDLEGGNIPALLDVDAYQASLKDDTEQGGGGAGGSNSSGSGAEENSNAAAAAMQPVEDMNDHAIRGDTFATRAEEKRAEAEAAAEAAAPAAQPEVEKPQKKPVIKPLTEDSKKRSYNLISNDSTFTQYRSWYLAYNYGDPQTGIRSWTLLCTPDVTCGSEQVYWSLPDMMQDPVTFRSTRQISNFPVVGAELLPVHSKSFYNDQAVYSQLIRQFTSLTHVFNRFPENQILARPPAPTITTVSENVPALTDHGTLPLRNSIGGVQRVTITDARRRTCPYVYKALGIVSPRVLSSRTFKKKKKKKKKK
[1]
  loss of Dox in complete cell culture media: no loss of Dox from the complex
[2]
  Dox release in blood (filtrate/retentate fluorescence): no detectable fluorescence in filtrates nor loss from retentates
SKBR3
  IC50: 56 ± 17 nM
[3]
  IC50: 300 to 800 nM
MDA-MB-231
  IC50: > 8000 nM
[4]; H&E
  myocardial histology: normal cardiac morphology
[4]; echocardiography 25 days following injections, 0.004 mg/kg
  stroke volume, cardiac output, left ventricular internal dimension and volume: no effect on these measurements; also recorded: no cardiac dysfunction or histological damage

From patent US11795454B2, “Targeted delivery system” (Cedars-Sinai Medical Center, priority 2009, dated 2023)
